# Patent US10253089B2, “Matrix metalloproteinase cleavable protein polymers for cancer gene therapy” (The University of Utah Research Foundation, priority 2012, dated 2019)
# T1: MMP-2 (Homo sapiens, UniProt P08253)
# T1 sequence (P08253 110-660): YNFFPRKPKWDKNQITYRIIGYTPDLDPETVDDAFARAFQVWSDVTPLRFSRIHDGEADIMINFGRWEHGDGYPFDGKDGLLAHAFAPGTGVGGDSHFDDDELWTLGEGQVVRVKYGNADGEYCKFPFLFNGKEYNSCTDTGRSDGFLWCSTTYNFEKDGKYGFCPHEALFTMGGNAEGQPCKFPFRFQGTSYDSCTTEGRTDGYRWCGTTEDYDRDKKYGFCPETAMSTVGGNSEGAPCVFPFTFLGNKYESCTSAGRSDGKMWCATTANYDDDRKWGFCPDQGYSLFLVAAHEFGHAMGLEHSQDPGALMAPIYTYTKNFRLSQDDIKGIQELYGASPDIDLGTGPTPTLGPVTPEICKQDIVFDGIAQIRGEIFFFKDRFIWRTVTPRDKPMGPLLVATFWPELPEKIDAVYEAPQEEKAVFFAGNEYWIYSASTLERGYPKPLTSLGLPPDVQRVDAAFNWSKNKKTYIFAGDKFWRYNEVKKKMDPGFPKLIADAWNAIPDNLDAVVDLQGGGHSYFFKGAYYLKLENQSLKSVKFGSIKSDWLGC
# B1: SELP815K: silk-elastin-like protein polymer, longer silk units, fifteen elastin units, lysine elastin unit; monomer repeated 6 times (SEQ ID NO. 21) (protein)
# chain: MDPVVLQRRDWENPGVTQLNRLAAHPPFASDPMGAGSGAGAGSGAGAGSGVGVPGVGVPGVGVPGVGVPGKGVPGVGVPGVGVPGVGVPGVGVPGVGVPGVGVPGVGVPGVGVPGVGVPGVGVPGVGVPGAGAGSGAGAGSGAGAGSGAGAGSGAGAGSGAGAGAGSGAGAGSGAGAGSGVGVPGVGVPGVGVPGVGVPGKGVPGVGVPGVGVPGVGVPGVGVPGVGVPGVGVPGVGVPGVGVPGVGVPGVGVPGVGVPGAGAGSGAGAGSGAGAGSGAGAGSGAGAGSGAGAGAGSGAGAGSGAGAGSGVGVPGVGVPGVGVPGVGVPGKGVPGVGVPGVGVPGVGVPGVGVPGVGVPGVGVPGVGVPGVGVPGVGVPGVGVPGVGVPGAGAGSGAGAGSGAGAGSGAGAGSGAGAGSGAGAGAGSGAGAGSGAGAGSGVGVPGVGVPGVGVPGVGVPGKGVPGVGVPGVGVPGVGVPGVGVPGVGVPGVGVPGVGVPGVGVPGVGVPGVGVPGVGVPGAGAGSGAGAGSGAGAGSGAGAGSGAGAGSGAGAGAGSGAGAGSGAGAGSGVGVPGVGVPGVGVPGVGVPGKGVPGVGVPGVGVPGVGVPGVGVPGVGVPGVGVPGVGVPGVGVPGVGVPGVGVPGVGVPGAGAGSGAGAGSGAGAGSGAGAGSGAGAGSGAGAGAGSGAGAGSGAGAGSGVGVPGVGVPGVGVPGVGVPGKGVPGVGVPGVGVPGVGVPGVGVPGVGVPGVGVPGVGVPGVGVPGVGVPGVGVPGVGVPGAGAGSGAGAGSGAGAGSGAGAGSGAGAGSGAGAMDPGRYQDLRSHHHHHH
# modifications: monomer repeated 6 times; Hybrid of Homo sapein and Bombyx mori
# Target: T1, MMP-2
# Assay: Enzymatic digest of polymer by MMP-2, SDS-PAGE
# Format: biochemical
# Settings: 1 mg/ml polymer, 10 nM and 40 nM MMP-2, 2-48 hours, room temperature
# Experimental: This buffer recipe is sourced from the Molecular Probes EnzChek Gelatinase/Collagenase Assay Kit (Invitrogen, Carlsbad, Calif.), which was used to confirm the activity of MMP-2 and MMP-9 prior to use. 2× Laemmli Buffer was supplemented with 5% β-mercaptoethanol and added 1:1 by volume to the polymer solutions, which were then placed in a PCR thermal cycler and heated to 95° C. for five minutes to denature the protein. 25 μl of each sample was added to 4-15% Bis-Tris precast PAGE gel and electrophoresis was performed at 200V until the dye front reached the bottom of the gel, approximately 30 minutes. Kaleidoscope protein standard was used as a molecular weight marker. Following electrophoresis, gels were stained with GelCode Blue (colloidal Coomassie formulation) following manufacturer's instructions for staining and destaining.
# 100 μl samples of each polymer were digested with a final concentration of 10 nM and 40 nM MMP-2 or MMP-9. MMP samples were incubated at room temperature for 2, 4, 12, 24, 36, and 48 hours and samples were run on PAGE gels and stained with GelCode Blue to visualize band patterns corresponding to protein degradation.
# Additionally, this digestion is dependent on both time of exposure and concentration of MMP.
molecule,measurement,value
B1,digestion by MMP-2,is not
